{
  "source": "patent US8536148B2",
  "about": "“Disabling autophagy as a treatment for lysosomal storage diseases” (The United States of America, as Represented by the …, priority 2009, dated 2013)",
  "origin": "cited, not measured here",
  "test_system": "Hunter syndrome patients",
  "key": {"[1]": {"details": "from baseline, both dosing regimens"}},
  "data": [
    {"molecule": "idursulfase: recombinant human I2S produced in a human cell line, approved for Hunter syndrome (protein, UniProt P22304 34-455; P22304 456-550, looked up) Iduronate 2-sulfatase 42 kDa …: TDALNVLLIIVDDLRPSLGCYGDKLVRSPNIDQLASHSLLFQNAFAQQAVCAPSRVSFLTGRRPDTTRLYDFNSYWRVHAGNFSTIPQYFKENGYVTMSVGKVFHPGISSNHTDDSPYSWSFPPYHPSSEKYENTKTCRGPDGELHANLLCPVDVLDVPEGTLPDKQSTEQAIQLLEKMKTSASPFFLAVGYHKPHIPFRYPKEFQKLYPLENITLAPDPEVPDGLPPVAYNPWMDIRQREDVQALNISVPYGPIPVDFQRKIRQSYFASVSYLDTQVGRLLSALDDLQLANSTIIAFTSDHGWALGEHGEWAKYSNFDVATHVPLIFYVPGRTASLPEAGEKLFPYLDPFDSASQLMEPGRQSMDLVELVSLFPTLAGLAGLQVPPRCPVPSFHVELCREGKNLLKHFRFRDLEEDPYLPG Iduronate 2-sulfatase 14 kDa …: NPRELIAYSQYPRPSDIPQWNSDKPSLKDIKIMGYSIRTIDYRYTVWVGFNPDEFLANFSDIHAGELYFVDSDPLQDHNMYNDSQGGDLFQLLMP", "values": [
      {"measurement": "Liver and spleen volumes", "setting": "[1]", "result": "significantly reduced from baseline"},
      {"measurement": "Urine GAG excretion", "setting": "[1]", "result": "significantly reduced from baseline"},
      {"measurement": "Tolerability", "setting": "human, in vivo", "result": "generally well tolerated"},
      {"measurement": "Clinical improvement vs placebo", "setting": "patients with Hunter syndrome", "result": "statistically significant improvement rate compared with placebo"}
    ]}
  ]
}
